Reference: paper PMC11154705, “Spatio-temporal control of asymmetric septum positioning during sporulation in Bacillus subtilis” (The Journal of Biological Chemistry, 2024)
Several values for one entry are separate records, joined by “and”; a condition that tells them apart may be missing. Equal values may be shown once.

Target: the molecule itself
Assay: SEC; Superdex S200 16/60 in 50 mM Tris-HCl pH 8.5, 300 mM NaCl; proteins applied separately or mixed (350 ul RefZ 28.8 uM premixed with 350 ul cyt-SpoIIE 15.5 uM, dialyzed overnight, 500 ul loaded); fractions analysed by anti-His Western blot

B1: His-tagged cytosolic part of SpoIIE (375-827 aa) (domain or fragment, B. subtilis, UniProt P37475 375-827, looked up)
chain: YQASDEQTDDSEVDLFLSKITEHSCQTCYKKNRCWVQNFDKTYDLMKQVMLETEEKEYASNRRLKKEFQQYCSKSKQVEELIEDELAHHHAHLTLKKKVQDSRRLVAEQLLGVSEVMADFSREIKREREQHFLQEEQIIEALQHFGIEIQHVEIYSLEQGNIDIEMTIPFSGHGESEKIIAPMLSDILEEQILVKAEQHSPHPNGYSHVAFGSTKSYRVSTGAAHAAKGGGLVSGDSYSMMELGARKYAAAISDGMGNGARAHFESNETIKLLEKILESGIDEKIAIKTINSILSLRTTDEIYSTLDLSIIDLQDASCKFLKVGSTPSFIKRGDQVMKVQASNLPIGIINEFDVEVVSEQLKAGDLLIMMSDGIFEGPKHVENHDLWMKRKMKGLKTNDPQEIADLLMEEVIRTRSGQIEDDMTVVVVRIDHNTPKWASIPVPAIFQNKQEIS
notes: SpoIIE, Bacillus subtilis, cytosolic part, residues 375-827; Elutes as dimers, tetramers and higher oligomers; also called cyt-SpoIIE; not shown: His-tag, N-terminal, kept
- stoichiometry N: 2 and 4
